target: T1, mouse PD-L1 on transfected CHO cells (mouse, UniProt Q9EP73 19-290); experiment: flow cytometry on CHO/mPD-L1 cells, one antibody amount, not given
T1 construct: whole, on cells; also called mPD-L1; CHO/mPD-L1
Experimental: CHO cells transfected with mouse PD-L1 (CHO/mPD-L1) were used to assess the species cross-reactivity of the anti-hPD-L1 mAb with mouse PD-L1. The cells were incubated with the anti-hPD-L1 mAb prior to flow cytometry analysis.

T1 sequence (Q9EP73 19-290): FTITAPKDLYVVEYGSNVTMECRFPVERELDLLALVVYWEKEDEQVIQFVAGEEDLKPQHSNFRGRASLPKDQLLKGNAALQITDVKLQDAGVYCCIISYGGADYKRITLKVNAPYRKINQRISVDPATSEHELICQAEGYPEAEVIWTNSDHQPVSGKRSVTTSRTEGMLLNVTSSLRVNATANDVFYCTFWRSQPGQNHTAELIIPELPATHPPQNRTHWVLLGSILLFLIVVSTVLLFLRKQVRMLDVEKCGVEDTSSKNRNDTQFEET

binding result | Binder
binds | anti-hPD-L1 mAb 5B7 (antibody, IgG1, V domains shown, also called anti hPD-L1 monoclonal antibody 5B7; anti-hPD-L1 monoclonal antibody) VH: EVQLQQSGAELVKPGASVKLSCTASGFNIKDTYMYWVKQRPEQGLECIGRIDPANDNTKYDPKFQGKATITADTSSNTAYVQLASLTSEDTAVYYCARAKNLLNYFDYWGQGTTLTVSS VL: DIQMTQSPSSLSASLGERVTLSCRASQEISGYLSWLQQKPDGTIKRLIYATSTLDSGVPKRFSGSRSGSDYSLTISSLESEDFADYYCLQYAIYPLTFGAGTKLELKR

target: T2, hPD-L1mIg fusion protein (human, UniProt Q9NZQ7 19-238); experiment: BLI, ForteBio Octet RED96; biotin-labeled hPD-L1-mouse Fc on SA sensors, 1:1 model
T2 construct: also called hPD-L1 mIg protein; biotin-labeled hPD-L1-mouse Fc fusion protein; not shown: mouse Ig (Fc) part
Experimental: All samples were prepared in PBS buffer (pH=7.4). The biotin-labeled hPD-L1-mouse Fc fusion protein was loaded onto SA sensors at a pre-determined loading threshold. scFv (PD-L1) was applied to the sensors at a concentration gradient of 3.125 nM-50 nM. Background subtraction was used to correct for sensor drifting. The data was fit to a 1:1 binding model using ForteBio's data analysis software in order to obtain the association (Kₒₙ) and dissociation (Koff) rates. The KD values were calculated based on Koff/Kₒₙ.

T2 sequence (Q9NZQ7 19-238): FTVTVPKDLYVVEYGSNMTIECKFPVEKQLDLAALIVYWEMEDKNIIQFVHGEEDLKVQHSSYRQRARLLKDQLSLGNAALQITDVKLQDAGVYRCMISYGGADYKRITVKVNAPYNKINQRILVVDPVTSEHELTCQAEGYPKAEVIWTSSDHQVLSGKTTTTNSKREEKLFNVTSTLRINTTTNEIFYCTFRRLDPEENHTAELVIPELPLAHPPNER

Kd | koff | kon | Binder
6.92 nM | 0.000225 s⁻¹ | 32600 M⁻¹ s⁻¹ | parental humanized IgG1 positive control antibody (antibody, V domains shown, also called anti-PD-L1 IgG1; Anti-Human PD-L1 IgG1) VH: QVQLVQSGAEVKKPGASVKVSCKASGFNIKDTYMYWVRQAPGQGLEWMGRIDPANDNTKYAQKFQGRVTITADTSTSTAYMELSSLRSEDTAVYYCARAKNLLNYFDYWGQGTLVTVSS VL: DIQMTQSPSSLSASVGDRVTITCRASQEISGYLSWLQQKPGKAPKRLIYATSTLQSGVPSRFSGSRSGTDYTLTISSLQPEDFATYYCLQYAIYPLTFGQGTKLEIKR

target: T2, hPD-L1mIg fusion protein; experiment: SPR, Biacore T200; hPD-L1 mIg amine-coupled on CM5 chip, antibody injected at 1-32 nM, full kinetic analysis
Experimental: The binding affinities and kinetics between the humanized anti-hPD-L1 mAbs and the hPD-L1 protein were assessed with Biacore T200 (GE Healthcare Life Sciences). The hPD-L1 mIg protein was immobilized on the sensor chip CM5 by amine coupling. The parental and humanized antibodies were injected at a concentration gradient of 1, 2, 4, 8, 16, and 32 nM. Binding kinetic parameters, including association rate (Kₒₙ), dissociation rate (Koff), and affinity constant (KD) were determined by full kinetic analysis. […] As shown in Table 7 and FIG. 4, the antibodies with dissociation rates (Koff) from the lowest to the highest were: parental (PA200), H1+L2 (H12), H3+L2 (H32), H1+L1 (H11), H1+L3 (H13), H3+L1 (H31), H3+L3 (H33), H2+L2 (H22), H2+L1 (H21), and H2+L3 (H23).

Kd | koff | kon | Binder
0.557 nM | 0.000811 s⁻¹ | 1.46e+06 M⁻¹ s⁻¹ | anti-PD-L1 HC1 + LC2 (antibody, V domains shown, Humanized antibody, Humanized VH 1 + Humanized VL 2; also called H1+L2; H12) VH: QVQLVQSGAEVKKPGASVKVSCKASGFNIKDTYMYWVRQAPGQGLEWMGRIDPANDNTKYAQKFQGRVTITADTSTSTAYMELSSLRSEDTAVYYCARAKNLLNYFDYWGQGTLVTVSS VL: DIQMTQSPSSLSASVGDRVTITCRASQEISGYLSWLQQKPGKAPKRLIYATSTLQSGVPSRFSGSRSGTDYTLTISSLQPEDFATYYCLQYAIYPLTFGQGTKLEIKR
1.3 nM | 0.00143 s⁻¹ | 1.1e+06 M⁻¹ s⁻¹ | anti-PD-L1 HC1 + LC3 (antibody, V domains shown, Humanized antibody, Humanized VH 1 + Humanized VL 3; also called H1+L3; H13) VH: QVQLVQSGAEVKKPGASVKVSCKASGFNIKDTYMYWVRQAPGQGLEWMGRIDPANDNTKYAQKFQGRVTITADTSTSTAYMELSSLRSEDTAVYYCARAKNLLNYFDYWGQGTLVTVSS VL: DIQMTQSPSSLSASVGDRVTITCRASQEISGYLSWYQQKPGKAPKRLIYATSTLDSGVPSRFSGSRSGSDYTLTISSLQPEDFATYYCLQYAIYPLTFGQGTKLEIKR
0.666 nM | 0.0011 s⁻¹ | 1.65e+06 M⁻¹ s⁻¹ | anti-PD-L1 HC3 + LC2 (antibody, V domains shown, Humanized antibody, Humanized VH3 + Humanized VL 2; also called H3+L2; H32) VH: EVQLVQSGAEVKKPGASVKVSCKASGFNIKDTYMYWVRQAPGQGLEWMGRIDPANDNTKYAQKFQGRVTITADTSTNTAYMELSSLRSEDTAVYYCARAKNLLNYFDYWGQGTLVTVSS VL: DIQMTQSPSSLSASVGDRVTITCRASQEISGYLSWLQQKPGKAPKRLIYATSTLQSGVPSRFSGSRSGTDYTLTISSLQPEDFATYYCLQYAIYPLTFGQGTKLEIKR
0.128 nM | 0.000118 s⁻¹ | 924000 M⁻¹ s⁻¹ | anti-PD-L1 parental (mouse-human chimeric mAb) (antibody, human IgG1, kappa, V domains shown, its variable domains are the same; also called parental chimeric antibody; parental (PA200)) VH: EVQLQQSGAELVKPGASVKLSCTASGFNIKDTYMYWVKQRPEQGLECIGRIDPANDNTKYDPKFQGKATITADTSSNTAYVQLASLTSEDTAVYYCARAKNLLNYFDYWGQGTTLTVSS VL: DIQMTQSPSSLSASLGERVTLSCRASQEISGYLSWLQQKPDGTIKRLIYATSTLDSGVPKRFSGSRSGSDYSLTISSLESEDFADYYCLQYAIYPLTFGAGTKLELKR

Second part, the binder before the results:

Binder | Kd | koff | kon
anti-PD-L1 HC3 + LC1 (antibody, V domains shown, Humanized antibody, Humanized VH3 + Humanized VL 1; also called H3+L1; H31) VH: EVQLVQSGAEVKKPGASVKVSCKASGFNIKDTYMYWVRQAPGQGLEWMGRIDPANDNTKYAQKFQGRVTITADTSTNTAYMELSSLRSEDTAVYYCARAKNLLNYFDYWGQGTLVTVSS VL: DIQMTQSPSSLSASVGDRVTITCRASQEISGYLSWYQQKPGKAPKRLIYATSTLDSGVPSRFSGSGSGTDFTLTISSLQPEDFATYYCLQYAIYPLTFGQGTKLEIKR | 1.17 nM | 0.00146 s⁻¹ | 1.25e+06 M⁻¹ s⁻¹
anti-PD-L1 HC1 + LC1 (antibody, V domains shown, Humanized antibody, Humanized VH 1 + Humanized VL 1; also called H1+L1; H11) VH: QVQLVQSGAEVKKPGASVKVSCKASGFNIKDTYMYWVRQAPGQGLEWMGRIDPANDNTKYAQKFQGRVTITADTSTSTAYMELSSLRSEDTAVYYCARAKNLLNYFDYWGQGTLVTVSS VL: DIQMTQSPSSLSASVGDRVTITCRASQEISGYLSWYQQKPGKAPKRLIYATSTLDSGVPSRFSGSGSGTDFTLTISSLQPEDFATYYCLQYAIYPLTFGQGTKLEIKR | 1.38 nM | 0.0012 s⁻¹ | 869000 M⁻¹ s⁻¹
anti-PD-L1 HC3 + LC3 (antibody, V domains shown, Humanized antibody, Humanized VH3 + Humanized VL 3; also called H3+L3; H33) VH: EVQLVQSGAEVKKPGASVKVSCKASGFNIKDTYMYWVRQAPGQGLEWMGRIDPANDNTKYAQKFQGRVTITADTSTNTAYMELSSLRSEDTAVYYCARAKNLLNYFDYWGQGTLVTVSS VL: DIQMTQSPSSLSASVGDRVTITCRASQEISGYLSWYQQKPGKAPKRLIYATSTLDSGVPSRFSGSRSGSDYTLTISSLQPEDFATYYCLQYAIYPLTFGQGTKLEIKR | 1 nM | 0.00146 s⁻¹ | 1.46e+06 M⁻¹ s⁻¹
anti-PD-L1 HC2 + LC2 (antibody, V domains shown, Humanized antibody, Humanized VH 2 + Humanized VL 2; also called H2+L2; H22) VH: QVQLVQSGAEVKKPGASVKVSCKASGFNIKDTYMYWVRQAPGQGLEWIGRIDPANDNTKYAPKFQGRVTITADTSTNTAYMELSSLRSEDTAVYYCARAKNLLNYFDYWGQGTLVTVSS VL: DIQMTQSPSSLSASVGDRVTITCRASQEISGYLSWLQQKPGKAPKRLIYATSTLQSGVPSRFSGSRSGTDYTLTISSLQPEDFATYYCLQYAIYPLTFGQGTKLEIKR | 1.23 nM | 0.00251 s⁻¹ | 2.05e+06 M⁻¹ s⁻¹
anti-PD-L1 HC2 + LC3 (antibody, V domains shown, Humanized antibody, Humanized VH 2 + Humanized VL 3; also called H2+L3; H23) VH: QVQLVQSGAEVKKPGASVKVSCKASGFNIKDTYMYWVRQAPGQGLEWIGRIDPANDNTKYAPKFQGRVTITADTSTNTAYMELSSLRSEDTAVYYCARAKNLLNYFDYWGQGTLVTVSS VL: DIQMTQSPSSLSASVGDRVTITCRASQEISGYLSWYQQKPGKAPKRLIYATSTLDSGVPSRFSGSRSGSDYTLTISSLQPEDFATYYCLQYAIYPLTFGQGTKLEIKR | 1.84 nM | 0.00417 s⁻¹ | 2.26e+06 M⁻¹ s⁻¹
anti-PD-L1 HC2 + LC1 (antibody, V domains shown, Humanized antibody, Humanized VH 2 + Humanized VL 1; also called H2+L1; H21) VH: QVQLVQSGAEVKKPGASVKVSCKASGFNIKDTYMYWVRQAPGQGLEWIGRIDPANDNTKYAPKFQGRVTITADTSTNTAYMELSSLRSEDTAVYYCARAKNLLNYFDYWGQGTLVTVSS VL: DIQMTQSPSSLSASVGDRVTITCRASQEISGYLSWYQQKPGKAPKRLIYATSTLDSGVPSRFSGSGSGTDFTLTISSLQPEDFATYYCLQYAIYPLTFGQGTKLEIKR | 2.18 nM | 0.00406 s⁻¹ | 1.86e+06 M⁻¹ s⁻¹
